Measured values taken from paper PMC11975286, “Functional dissection of the conserved C. elegans LEM-3/ANKLE1 nuclease reveals a crucial requirement for the LEM-like and GIY-YIG domains for DNA bridge processing”.

Columns and labels:
LEM-3(485-704) = target: T1, LEM-3(485-704) (Caenorhabditis elegans, UniProt G5EGA3 485-704); assay: EMSA; no divalent metal, 100 mM Na+; 10 mM Tris-HCl pH 7.5, 100 mM NaCl, 5% glycerol, 5 ng/ul poly(dI-dC), 4 C, 1 h; 8.3 nM HJ-X0-1 (0.13 nM for Kd); 6% native PAGE, 0.5x TBE, 4 C; details: protein: recombinant; tags: His-GST removed by TEV; label: 5'-Cy5 on X0-1; four-way junction of 4 strands, 1 copy each
T1 sequence: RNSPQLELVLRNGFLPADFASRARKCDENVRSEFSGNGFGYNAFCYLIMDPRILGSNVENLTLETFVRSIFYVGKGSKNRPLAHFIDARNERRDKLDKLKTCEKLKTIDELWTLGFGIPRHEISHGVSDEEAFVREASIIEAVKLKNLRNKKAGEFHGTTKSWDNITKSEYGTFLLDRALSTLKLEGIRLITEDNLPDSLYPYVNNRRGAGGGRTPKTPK

LEM-3(241-704) = target: T2, LEM-3(241-704) (Caenorhabditis elegans, UniProt G5EGA3 241-704); assay: EMSA; no divalent metal, 100 mM Na+; 0.13 nM HJ; cooperative (Hill) fit; 10 mM Tris-HCl pH 7.5, 100 mM NaCl, 5% glycerol, 5 ng/ul poly(dI-dC), 4 C, 1 h; 8.3 nM HJ-X0-1 (0.13 nM for Kd); 6% native PAGE, 0.5x TBE, 4 C; details: protein: recombinant; tags: His-GST removed by TEV; label: 5'-Cy5 on X0-1; four-way junction of 4 strands, 1 copy each
T2 sequence: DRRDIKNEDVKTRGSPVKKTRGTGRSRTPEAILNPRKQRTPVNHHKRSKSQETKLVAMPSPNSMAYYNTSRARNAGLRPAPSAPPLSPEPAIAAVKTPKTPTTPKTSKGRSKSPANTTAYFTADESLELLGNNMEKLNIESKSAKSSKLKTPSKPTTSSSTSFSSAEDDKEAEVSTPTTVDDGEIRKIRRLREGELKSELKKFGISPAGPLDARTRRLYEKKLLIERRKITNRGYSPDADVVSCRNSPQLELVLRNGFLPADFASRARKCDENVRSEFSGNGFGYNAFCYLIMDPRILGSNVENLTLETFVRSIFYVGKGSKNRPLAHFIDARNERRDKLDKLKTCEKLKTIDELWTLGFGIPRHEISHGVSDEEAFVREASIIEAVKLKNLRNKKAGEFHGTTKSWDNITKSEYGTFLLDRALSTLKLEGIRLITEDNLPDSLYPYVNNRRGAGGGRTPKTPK

B1: HJ-X0-1 (immobile Holliday junction) (structured_DNA)
DNA 1: ACGCTGCCGAATTCTACCAGTGCCTTGCTAGGACATCTTTGCCCACCTGCAGGTTCACCC
DNA 2: GGGTGAACCTGCAGGTGGGCAAAGATGTCCATCTGTTGTAATCGTCAAGCTTTATGCCGT
DNA 3: ACGGCATAAAGCTTGACGATTACAACAGATCATGGAGCTGTCTAGAGGATCCGACTATCG
DNA 4: CGATAGTCGGATCCTCTAGACAGCTCCATGTAGCAAGGCACTGGTAGAATTCGGCAGCGT
Question: Does B1 bind (LEM-3(485-704))?
Answer: Result: no binding

Question: And the Kd (LEM-3(241-704))?
Answer: The Kd was about 40 nM.
